For the assay, the target named is E. coli core RNAP enzyme (E. coli, UniProt P0A7Z4 1-329; P0A8V2 1-1342; P0A8T7 1-1407; P0A800 1-91). Briefly: fluorescence polarisation. On the technique in general: In fluorescence polarisation assays a small probe gives low polarisation when free and higher when bound to something large.
E. coli core RNAP enzyme, sequence (P0A7Z4 whole entry, chain 1 of 4): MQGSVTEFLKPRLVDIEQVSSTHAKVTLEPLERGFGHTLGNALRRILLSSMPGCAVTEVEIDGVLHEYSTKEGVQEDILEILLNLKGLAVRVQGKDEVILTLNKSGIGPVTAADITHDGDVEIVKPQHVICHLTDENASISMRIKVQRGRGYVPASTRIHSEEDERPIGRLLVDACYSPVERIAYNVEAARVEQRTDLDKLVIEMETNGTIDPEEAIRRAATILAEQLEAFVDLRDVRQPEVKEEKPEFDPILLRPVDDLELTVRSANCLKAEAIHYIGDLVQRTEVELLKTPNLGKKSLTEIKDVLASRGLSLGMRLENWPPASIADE
E. coli core RNAP enzyme, sequence (P0A8V2 whole entry, chain 2 of 4): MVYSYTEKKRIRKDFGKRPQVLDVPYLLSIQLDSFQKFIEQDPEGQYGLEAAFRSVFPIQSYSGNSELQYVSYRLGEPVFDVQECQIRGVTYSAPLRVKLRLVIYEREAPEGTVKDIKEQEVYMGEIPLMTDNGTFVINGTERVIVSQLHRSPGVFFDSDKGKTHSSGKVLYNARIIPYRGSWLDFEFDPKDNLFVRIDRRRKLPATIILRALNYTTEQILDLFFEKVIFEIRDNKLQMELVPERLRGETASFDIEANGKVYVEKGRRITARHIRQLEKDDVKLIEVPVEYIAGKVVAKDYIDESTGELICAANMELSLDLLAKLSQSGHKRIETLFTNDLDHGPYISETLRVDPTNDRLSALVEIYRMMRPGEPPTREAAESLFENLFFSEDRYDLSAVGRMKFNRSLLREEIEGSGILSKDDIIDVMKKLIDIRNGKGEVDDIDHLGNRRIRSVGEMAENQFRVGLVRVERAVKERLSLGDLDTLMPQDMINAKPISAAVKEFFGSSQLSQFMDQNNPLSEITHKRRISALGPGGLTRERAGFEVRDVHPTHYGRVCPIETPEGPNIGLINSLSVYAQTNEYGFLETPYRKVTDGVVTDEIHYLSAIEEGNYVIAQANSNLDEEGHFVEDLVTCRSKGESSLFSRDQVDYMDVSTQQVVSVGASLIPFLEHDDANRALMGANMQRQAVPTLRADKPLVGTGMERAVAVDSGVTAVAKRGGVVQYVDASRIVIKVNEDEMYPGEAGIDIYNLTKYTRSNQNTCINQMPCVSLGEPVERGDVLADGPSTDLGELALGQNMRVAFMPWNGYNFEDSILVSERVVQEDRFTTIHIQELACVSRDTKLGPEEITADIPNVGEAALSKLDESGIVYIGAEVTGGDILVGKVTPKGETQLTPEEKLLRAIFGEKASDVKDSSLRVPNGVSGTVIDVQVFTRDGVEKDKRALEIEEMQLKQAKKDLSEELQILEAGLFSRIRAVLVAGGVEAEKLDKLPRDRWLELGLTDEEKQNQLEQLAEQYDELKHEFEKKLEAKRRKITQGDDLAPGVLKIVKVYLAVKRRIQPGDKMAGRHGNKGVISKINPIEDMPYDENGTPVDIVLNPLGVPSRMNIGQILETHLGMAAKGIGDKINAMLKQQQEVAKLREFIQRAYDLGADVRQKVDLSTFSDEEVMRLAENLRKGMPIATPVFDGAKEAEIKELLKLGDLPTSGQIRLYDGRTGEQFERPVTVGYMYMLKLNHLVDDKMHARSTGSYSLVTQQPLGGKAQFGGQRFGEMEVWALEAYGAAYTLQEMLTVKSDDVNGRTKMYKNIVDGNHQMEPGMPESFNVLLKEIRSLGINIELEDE
E. coli core RNAP enzyme, sequence (P0A8T7 whole entry, chain 3 of 4): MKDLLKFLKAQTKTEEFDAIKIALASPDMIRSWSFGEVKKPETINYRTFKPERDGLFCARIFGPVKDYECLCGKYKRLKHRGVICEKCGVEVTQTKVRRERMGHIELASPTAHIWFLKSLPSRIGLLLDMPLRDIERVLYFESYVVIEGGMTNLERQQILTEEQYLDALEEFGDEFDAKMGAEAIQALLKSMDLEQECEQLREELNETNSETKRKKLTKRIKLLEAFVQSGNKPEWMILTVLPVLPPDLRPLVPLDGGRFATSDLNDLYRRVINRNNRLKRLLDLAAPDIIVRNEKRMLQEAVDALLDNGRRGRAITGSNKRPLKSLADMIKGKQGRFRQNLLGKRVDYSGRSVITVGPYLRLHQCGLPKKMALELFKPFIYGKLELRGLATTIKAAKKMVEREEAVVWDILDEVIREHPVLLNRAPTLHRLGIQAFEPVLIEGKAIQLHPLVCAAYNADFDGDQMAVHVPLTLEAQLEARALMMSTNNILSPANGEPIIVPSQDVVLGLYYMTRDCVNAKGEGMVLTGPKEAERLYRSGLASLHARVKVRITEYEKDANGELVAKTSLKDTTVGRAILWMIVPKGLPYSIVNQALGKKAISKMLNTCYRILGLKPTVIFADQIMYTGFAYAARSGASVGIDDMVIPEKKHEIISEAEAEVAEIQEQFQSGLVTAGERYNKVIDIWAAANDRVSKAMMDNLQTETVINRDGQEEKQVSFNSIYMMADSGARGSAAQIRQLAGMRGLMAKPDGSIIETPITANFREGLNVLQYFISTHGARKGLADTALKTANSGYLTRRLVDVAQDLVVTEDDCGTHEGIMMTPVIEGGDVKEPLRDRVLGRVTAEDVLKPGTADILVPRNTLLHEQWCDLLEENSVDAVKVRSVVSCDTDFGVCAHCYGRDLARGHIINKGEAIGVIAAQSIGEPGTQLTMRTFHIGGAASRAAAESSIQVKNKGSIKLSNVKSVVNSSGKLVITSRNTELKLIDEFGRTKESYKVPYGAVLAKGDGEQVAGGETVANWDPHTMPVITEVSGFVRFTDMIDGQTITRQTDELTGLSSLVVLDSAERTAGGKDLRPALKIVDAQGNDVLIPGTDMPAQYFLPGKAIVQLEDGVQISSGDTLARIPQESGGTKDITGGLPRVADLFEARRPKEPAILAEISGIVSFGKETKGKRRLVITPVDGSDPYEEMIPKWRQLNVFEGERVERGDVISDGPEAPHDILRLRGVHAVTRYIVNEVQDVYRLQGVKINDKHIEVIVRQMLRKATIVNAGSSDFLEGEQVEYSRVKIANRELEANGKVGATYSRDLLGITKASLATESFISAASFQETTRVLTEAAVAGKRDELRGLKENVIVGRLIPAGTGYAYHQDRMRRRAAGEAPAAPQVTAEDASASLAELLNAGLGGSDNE
E. coli core RNAP enzyme, sequence (P0A800 whole entry, chain 4 of 4): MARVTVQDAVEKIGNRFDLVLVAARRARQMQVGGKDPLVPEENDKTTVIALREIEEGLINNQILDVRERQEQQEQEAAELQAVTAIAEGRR

B1: BODIPY FL-labelled DksA with a cysteine substitution at position 35 (A35C) (natural protein, E. coli)
chain: MQEGQNRKTSSLSILAIAGVEPYQEKPGEEYMNECQLAHFRRILEAWRNQLRDEVDRTVTHMQDEAANFPDPVDRAAQEEEFSLELRNRDRERKLIKKIEKTLKKVEDEDFGYCESCGVEIGIRRLEARPTADLCIDCKTLAEIREKQMAG
modifications: BODIPY FL (maleimide) conjugated to the cysteine at position 35
Consider B1, for which the equilibrium dissociation constant (Kd) was 112 nM.

As a reminder, the Kd is the equilibrium constant for the complex coming apart. A high value points to lower affinity.

The values are drawn from paper PMC5837818 (Molecular cell, 2018).
